According to patent US20260022175A1 (Chugai, published 2026):

T1: human FcγRIIb extracellular domain (human, UniProt P31994 43-217)
T1 construct: extracellular domain; also called hFcγR IIb
T1 sequence (looked up): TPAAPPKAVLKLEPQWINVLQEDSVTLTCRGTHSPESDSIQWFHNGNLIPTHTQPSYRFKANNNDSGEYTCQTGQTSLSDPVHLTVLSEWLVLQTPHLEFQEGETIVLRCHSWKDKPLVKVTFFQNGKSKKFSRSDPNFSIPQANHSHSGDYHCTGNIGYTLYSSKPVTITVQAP

T2: human FcγRIIa R extracellular domain (human, UniProt P12318 34-217)
T2 construct: extracellular domain; also called hFcγR IIa R
T2 sequence (looked up): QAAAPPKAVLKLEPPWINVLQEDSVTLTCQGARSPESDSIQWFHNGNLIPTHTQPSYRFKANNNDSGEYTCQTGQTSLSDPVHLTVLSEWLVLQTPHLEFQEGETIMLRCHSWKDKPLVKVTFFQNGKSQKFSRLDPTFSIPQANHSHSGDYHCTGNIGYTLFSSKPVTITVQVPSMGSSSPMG

T3: human FcγRIIa H extracellular domain (human, UniProt P12318 34-217)
T3 construct: extracellular domain; also called hFcγR IIa H
T3 sequence (looked up): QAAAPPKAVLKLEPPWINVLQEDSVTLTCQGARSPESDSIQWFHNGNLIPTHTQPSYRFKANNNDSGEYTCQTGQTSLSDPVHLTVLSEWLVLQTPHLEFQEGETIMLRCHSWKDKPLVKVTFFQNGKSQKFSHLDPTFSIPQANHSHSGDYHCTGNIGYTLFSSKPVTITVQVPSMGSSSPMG

T4: hFcγRIIaH on hFcγRIIaH-expressing Jurkat cells (human, UniProt P12318 34-317)
T4 sequence (looked up): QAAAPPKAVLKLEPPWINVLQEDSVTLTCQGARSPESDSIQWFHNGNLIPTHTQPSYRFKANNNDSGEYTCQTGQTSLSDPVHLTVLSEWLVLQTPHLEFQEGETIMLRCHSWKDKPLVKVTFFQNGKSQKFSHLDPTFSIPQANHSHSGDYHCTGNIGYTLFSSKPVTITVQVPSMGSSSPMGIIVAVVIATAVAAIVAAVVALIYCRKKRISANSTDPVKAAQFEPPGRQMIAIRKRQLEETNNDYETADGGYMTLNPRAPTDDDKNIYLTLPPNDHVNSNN


How the values were obtained:
[1] = target: hFcγRIIIaV on hFcγRIIIaV-expressing Jurkat cells (human, UniProt P08637 17-254); test: cell-based or functional assay
Chain of hFcγRIIIaV on hFcγRIIIaV-expressing Jurkat cells (P08637 17-254, form in doubt): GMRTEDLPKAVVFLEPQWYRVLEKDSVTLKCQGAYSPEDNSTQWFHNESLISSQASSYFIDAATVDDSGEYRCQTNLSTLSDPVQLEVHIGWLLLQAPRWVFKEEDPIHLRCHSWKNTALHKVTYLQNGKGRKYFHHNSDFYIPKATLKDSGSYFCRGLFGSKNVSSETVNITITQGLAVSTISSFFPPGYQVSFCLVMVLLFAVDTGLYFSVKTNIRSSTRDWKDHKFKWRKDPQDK

[2] = target: T1, human FcγRIIb extracellular domain; test: SPR Biacore 8K+, antibody captured, FcγR as analyte, steady state affinity model
[3] = target: T5, human FcγRIIIa F extracellular domain (human, UniProt P08637 17-208); test: SPR Biacore 8K+; KD of G1d divided by KD of this antibody;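 further: antibodies captured on an anti-Fab-kappa streptavidin chip, soluble FcγR ectodomains flowed over, KD by steady-state fit for FcγRIIb and Langmuir kinetic model for the other receptors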
T5 construct: extracellular domain; also called hFcγR IIIa F
T5 sequence (P08637 17-208): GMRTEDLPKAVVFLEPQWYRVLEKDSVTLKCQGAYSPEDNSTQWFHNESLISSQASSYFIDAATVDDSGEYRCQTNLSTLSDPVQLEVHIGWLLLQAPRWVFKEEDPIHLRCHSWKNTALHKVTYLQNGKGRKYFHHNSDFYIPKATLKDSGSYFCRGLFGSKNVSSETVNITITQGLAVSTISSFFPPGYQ

[4] = target: T2, human FcγRIIa R extracellular domain; test: as above
[5] = target: T3, human FcγRIIa H extracellular domain; test: as above
[6] = target: T6, human FcγRIIIa V extracellular domain (human, UniProt P08637 17-208); test: as above
T6 construct: extracellular domain; also called hFcγR IIIa V
T6 sequence (P08637 17-208 F176V limits assumed): as the sequence (P08637 17-208) above, with F160V counted along it

[7] = target: T7, human FcγRIa extracellular domain (human, UniProt P12314 16-292); test: as above
T7 construct: extracellular domain; also called hFcγR Ia; hFcγRIa
T7 sequence (P12314 16-292): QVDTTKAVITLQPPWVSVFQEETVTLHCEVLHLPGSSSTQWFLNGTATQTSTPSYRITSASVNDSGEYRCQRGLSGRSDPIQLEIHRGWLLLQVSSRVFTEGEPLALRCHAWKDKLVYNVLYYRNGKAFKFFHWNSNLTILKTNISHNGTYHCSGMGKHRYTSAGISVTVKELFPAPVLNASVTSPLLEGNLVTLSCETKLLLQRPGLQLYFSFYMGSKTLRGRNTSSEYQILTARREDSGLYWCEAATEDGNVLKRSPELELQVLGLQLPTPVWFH

[8] = target: T1, human FcγRIIb extracellular domain; test: as above
[9] = target: T5, human FcγRIIIa F extracellular domain; test: SPR Biacore 8K+; KD for FcγRIIb divided by KD for this FcγR;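 further: antibodies captured on an anti-human Fab kappa SA chip with soluble human FcγR ectodomains flowed over, FcγRIIb KD from steady-state fit, other FcγR KD from Langmuir model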
[10] = target: T2, human FcγRIIa R extracellular domain; test: as above
[11] = target: T3, human FcγRIIa H extracellular domain; test: as above
[12] = target: T6, human FcγRIIIa V extracellular domain; test: as above
[13] = target: T8, human C1q protein (Calbiochem) (human, UniProt P02745 23-245; P02746 28-253; P02747 29-245); test: ELISA: antibody coated on the plate at the varied concentration, hC1q 3 µg/mL added, detected with HRP-conjugated anti-hC1q antibody, O.D (450-690nm)
T8 construct: bought; also called hC1q
T8 sequence (P02745 23-245 limits assumed, chain 1 of 3): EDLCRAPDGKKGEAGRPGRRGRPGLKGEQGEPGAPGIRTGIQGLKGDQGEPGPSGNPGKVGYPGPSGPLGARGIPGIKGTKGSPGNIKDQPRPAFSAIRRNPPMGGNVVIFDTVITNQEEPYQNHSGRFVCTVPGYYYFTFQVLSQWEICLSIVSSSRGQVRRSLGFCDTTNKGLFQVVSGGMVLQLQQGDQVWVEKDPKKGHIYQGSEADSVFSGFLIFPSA
T8 sequence (P02746 28-253 limits assumed, chain 2 of 3): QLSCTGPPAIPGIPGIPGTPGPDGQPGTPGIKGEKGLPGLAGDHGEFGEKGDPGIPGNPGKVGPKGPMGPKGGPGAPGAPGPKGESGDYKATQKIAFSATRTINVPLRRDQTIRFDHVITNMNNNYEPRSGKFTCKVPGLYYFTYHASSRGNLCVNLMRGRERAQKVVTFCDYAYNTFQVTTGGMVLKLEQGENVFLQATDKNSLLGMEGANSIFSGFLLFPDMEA
T8 sequence (P02747 29-245 limits assumed, chain 3 of 3): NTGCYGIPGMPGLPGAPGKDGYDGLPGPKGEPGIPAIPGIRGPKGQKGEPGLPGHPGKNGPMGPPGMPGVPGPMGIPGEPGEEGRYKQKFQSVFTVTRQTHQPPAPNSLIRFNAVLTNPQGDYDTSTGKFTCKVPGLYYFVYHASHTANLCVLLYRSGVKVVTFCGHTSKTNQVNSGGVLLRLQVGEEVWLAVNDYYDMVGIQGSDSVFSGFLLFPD
Description: The antigen used was a human C1q protein (hC1q).
First, a 96-well maxisorp plate (Thermo fisher) was coated at 4° C. overnight with 50 μL of solutions containing each antibody prepared at 30, 10, 3, 1, 0.3, 0.1, and 0.03 μg/mL in PBS. Each well of the plate was washed with Wash buffer to remove the antibody not bound to the plate, and then the wells were blocked with 200 μL of Blocking/dilution Buffer at room temperature for 2 hours or longer. After the Blocking/dilution Buffer was removed from each well, hC1q (Calbiochem) prepared such that the final concentration was 3 μg/mL in Blocking/dilution Buffer was added at 50 μL per well. The plate was then allowed to stand at room temperature for 1 hour to allow hC1q to bind to the antibody within each well. After washing with Wash Buffer, 50 μL of an HRP-conjugated anti-hC1q antibody (AbDSerotec) diluted with Blocking/dilution Buffer was added to each well, and the plate was incubated while standing for 1 hour. After washing with Wash Buffer, TMB single solution (Invitrogen) was added. The color development reaction of the solution in each well was stopped by addition of Stop Buffer, and then the developed color was measured by absorbance at 450 nm and 690 nm.

[14] = target: T5, human FcγRIIIa F extracellular domain; test: SPR Biacore 8K+, antibody captured, FcγR as analyte, 1:1 Langmuir model;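 further: antibodies captured on a streptavidin chip through a biotinylated anti-human Fab kappa reagent, with FcγR extracellular domains injected in pH 7.4 phosphate buffer at 25 °C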
[15] = target: T2, human FcγRIIa R extracellular domain; test: as above
[16] = target: T3, human FcγRIIa H extracellular domain; test: as above
[17] = target: T6, human FcγRIIIa V extracellular domain; test: as above
[18] = target: T7, human FcγRIa extracellular domain; test: as above
[19] = target: T4, hFcγRIIaH on hFcγRIIaH-expressing …; test: cell-based or functional assay

EC50 value (hFcγRIIIaV ADCC Reporter Bioassay, Hepa1-6/hEREG target cells) [1] [ng/mL] | Kd [2] [µM] | Relative value to KD between G1d and hFcgRs [3] | Relative value to KD between G1d and hFcgRs [4] | Relative value to KD between G1d and hFcgRs [5] | Relative value to KD between G1d and hFcgRs [6] | Relative value to KD between G1d and hFcgRs [7] | Relative value to KD between G1d and hFcgRs [8] | A/I ratio (KD for FcγRIIb divided by KD for each FcγR) [9] | A/I ratio (KD for FcγRIIb divided by KD for each FcγR) [10] | A/I ratio (KD for FcγRIIb divided by KD for each FcγR) [11] | A/I ratio (KD for FcγRIIb divided by KD for each FcγR) [12] | binding result [13] | Kd [14] [nM] | Kd [15] [nM] | Kd [16] [nM] | Kd [17] [nM] | Kd [18] [nM] | EC50 value (hFcγRIIaH ADCP Reporter Bioassay, Hepa1-6/hEREG target cells) [19] [µg/mL] | Binder
0.413 | 14.6 | 141 | 1.3 | 4.9 | 97.5 | 2.4 | 0.7 | 694 | 11.5 | 63.3 | 3970 | binds | 21 | 1270 | 231 | 3.67 | 0.0381 | 0.0367 | H240-Kn496/L73-k0//H240-Hl516/L73-k0 (antibody, human IgG1, kappa, also called EGL-ART11; ART11) heavy 1: QDQLVQSGAEVKKPGASVKVSCKASGFNIKDTYIQWVRQAPGQGLEWMGRIDPLRKQTKYREKFEGRVTITADTSTNTAYMELSSLRSEDTAVYYCVRSGREFDYWGQGTLVTVSSASTKGPSVFPLAPSSKSTSGGTAALGCLVKDYFPEPVTVSWNSGALTSGVHTFPAVLQSSGLYSLSSVVTVPSSSLGTQTYICNVNHKPSNTKVDKKVEPKSCDKTHTCPPCPAPEFQWGPMVFLFPPKPKDVLMISRTPEVTCVVVDVSDEEPEVKFNWYVDGVEVHNAKTKPREEQYNATYRVVSVLPVLHQDWLNGKEYKCKVSNKALPAPIEKTISKAKGQPREPQVCTLPPSRDELTKNQVSLWCLVKGFYPSDIAVEWESNGQPENNYKTTPPVLDSDGSFFLYSKLTVDKSRWQQGNVFSCSVMHEALHNHYTQKSLSLSP heavy 2: QDQLVQSGAEVKKPGASVKVSCKASGFNIKDTYIQWVRQAPGQGLEWMGRIDPLRKQTKYREKFEGRVTITADTSTNTAYMELSSLRSEDTAVYYCVRSGREFDYWGQGTLVTVSSASTKGPSVFPLAPSSKSTSGGTAALGCLVKDYFPEPVTVSWNSGALTSGVHTFPAVLQSSGLYSLSSVVTVPSSSLGTQTYICNVNHKPSNTKVDKKVEPKSCDKTHTCPPCPAPELLGGPSVFLFPPKPKDVLMISRTPEVTCVVVDVSHEEPEVKFNWYVDGVEVHNAKTKPREEQYNATYRVVSVLPVLHQDWLNGKEYKCKVSNDALPAPIEETISKAKGQPREPQVYTLPPSRCELTKNQVSLSCAVKGFYPSDIAVEWESNGQPENNYKTTPPVLDSDGSFFLVSKLTVDKSRWQQGNVFSCSVMHEALHNHYTQKSLSLSP light: DIQMTQSPSSLSASVGDRVTITCRASQDIHKYIAWYQQKPGQAPRLLIQYTSTLQPGVPSRFSGSGSGTDYTFTISSLQPEDIATYYCLQYEQLRTFGGGTKVEIKRTVAAPSVFIFPPSDEQLKSGTASVVCLLNNFYPREAKVQWKVDNALQSGNSQESVTEQDSKDSTYSLSSTLTLSKADYEKHKVYACEVTHQGLSSPVTKSFNRGEC
0.107 | 7.25 | 1290 | 1.5 | 2.7 | 566 | 3.4 | 1.4 | 3160 | 6.6 | 17.3 | 11400 | binds | 2.29 | 1100 | 420 | 0.634 | 0.0267 | 0.0419 | H240-Kn494/L73-k0//H240-Hl514/L73-k0 (antibody, human IgG1, kappa, also called EGL-ART10; ART10) heavy 1: QDQLVQSGAEVKKPGASVKVSCKASGFNIKDTYIQWVRQAPGQGLEWMGRIDPLRKQTKYREKFEGRVTITADTSTNTAYMELSSLRSEDTAVYYCVRSGREFDYWGQGTLVTVSSASTKGPSVFPLAPSSKSTSGGTAALGCLVKDYFPEPVTVSWNSGALTSGVHTFPAVLQSSGLYSLSSVVTVPSSSLGTQTYICNVNHKPSNTKVDKKVEPKSCDKTHTCPPCPAPEFQWGPMVFLFPPKPKDVLMISRTPEVTCVVVDVSDEEPEVKFNWYVDGVEVHNAKTKPREEQYNATYRVVSVLPVLHQDWLNGKEYKCKVSNKALPAPEEKTISKAKGQPREPQVCTLPPSRDELTKNQVSLWCLVKGFYPSDIAVEWESNGQPENNYKTTPPVLDSDGSFFLYSKLTVDKSRWQQGNVFSCSVMHEALHNHYTQKSLSLSP heavy 2: QDQLVQSGAEVKKPGASVKVSCKASGFNIKDTYIQWVRQAPGQGLEWMGRIDPLRKQTKYREKFEGRVTITADTSTNTAYMELSSLRSEDTAVYYCVRSGREFDYWGQGTLVTVSSASTKGPSVFPLAPSSKSTSGGTAALGCLVKDYFPEPVTVSWNSGALTSGVHTFPAVLQSSGLYSLSSVVTVPSSSLGTQTYICNVNHKPSNTKVDKKVEPKSCDKTHTCPPCPAPELLGGPSVFLFPPKPKDVLMISRTPEVTCVVVDVSHEEPEVKFNWYVDGVEVHNAKTKPREEQYNATYRVVSVLPVLHQDWLNGKEYKCKVSNDALPAPEEETISKAKGQPREPQVYTLPPSRCELTKNQVSLSCAVKGFYPSDIAVEWESNGQPENNYKTTPPVLDSDGSFFLVSKLTVDKSRWQQGNVFSCSVMHEALHNHYTQKSLSLSP light: DIQMTQSPSSLSASVGDRVTITCRASQDIHKYIAWYQQKPGQAPRLLIQYTSTLQPGVPSRFSGSGSGTDYTFTISSLQPEDIATYYCLQYEQLRTFGGGTKVEIKRTVAAPSVFIFPPSDEQLKSGTASVVCLLNNFYPREAKVQWKVDNALQSGNSQESVTEQDSKDSTYSLSSTLTLSKADYEKHKVYACEVTHQGLSSPVTKSFNRGEC
